Experimental data reported in article PMC6182170.

Experiments:
[1] = target: T1, ADR-1 WT (Caenorhabditis elegans) (UniProt Q9U3D6); experiment: EMSA; conditions: EMSA: 20 pM dsRNA, 50 mM KCl, 10 mM Tris-HCl pH 8.0, 10% glycerol, 1 mM MgCl2, 0.5 mM DTT, on ice 30 min; native 6% gel, 0.5x TBE, 4 C
T1 sequence: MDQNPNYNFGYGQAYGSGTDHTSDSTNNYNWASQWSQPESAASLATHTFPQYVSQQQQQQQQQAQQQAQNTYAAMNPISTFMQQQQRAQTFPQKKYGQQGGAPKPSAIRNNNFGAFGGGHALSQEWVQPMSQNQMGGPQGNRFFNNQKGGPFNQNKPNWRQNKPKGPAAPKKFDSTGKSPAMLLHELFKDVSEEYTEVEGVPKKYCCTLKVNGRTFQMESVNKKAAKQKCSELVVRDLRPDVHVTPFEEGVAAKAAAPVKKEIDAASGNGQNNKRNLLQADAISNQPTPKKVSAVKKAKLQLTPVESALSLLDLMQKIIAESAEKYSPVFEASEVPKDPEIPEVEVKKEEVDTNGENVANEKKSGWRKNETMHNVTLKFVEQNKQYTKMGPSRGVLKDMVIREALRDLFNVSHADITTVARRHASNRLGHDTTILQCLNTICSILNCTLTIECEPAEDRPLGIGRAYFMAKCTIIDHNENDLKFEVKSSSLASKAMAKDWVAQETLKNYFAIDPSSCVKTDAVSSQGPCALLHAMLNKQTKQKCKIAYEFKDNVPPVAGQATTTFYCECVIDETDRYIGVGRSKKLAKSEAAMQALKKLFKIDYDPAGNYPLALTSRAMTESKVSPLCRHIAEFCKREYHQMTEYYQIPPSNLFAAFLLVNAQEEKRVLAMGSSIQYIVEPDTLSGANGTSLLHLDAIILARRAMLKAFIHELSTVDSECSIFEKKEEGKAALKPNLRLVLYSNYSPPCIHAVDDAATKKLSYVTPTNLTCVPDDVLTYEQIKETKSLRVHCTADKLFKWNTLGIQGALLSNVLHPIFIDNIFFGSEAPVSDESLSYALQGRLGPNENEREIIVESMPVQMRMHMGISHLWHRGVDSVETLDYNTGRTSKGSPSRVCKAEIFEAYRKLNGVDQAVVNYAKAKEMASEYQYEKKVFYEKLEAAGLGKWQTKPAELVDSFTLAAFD

[2] = target: ADR-2 WT (Caenorhabditis elegans) (UniProt Q22618); experiment: EMSA; conditions: EMSA: 20 pM dsRNA, 50 mM KCl, 10 mM Tris-HCl pH 8.0, 10% glycerol, 1 mM MgCl2, 0.5 mM DTT, on ice 30 min; native 6% gel, 0.5x TBE, 4 C
Sequence of ADR-2 WT (Caenorhabditis elegans) (Q22618 whole entry): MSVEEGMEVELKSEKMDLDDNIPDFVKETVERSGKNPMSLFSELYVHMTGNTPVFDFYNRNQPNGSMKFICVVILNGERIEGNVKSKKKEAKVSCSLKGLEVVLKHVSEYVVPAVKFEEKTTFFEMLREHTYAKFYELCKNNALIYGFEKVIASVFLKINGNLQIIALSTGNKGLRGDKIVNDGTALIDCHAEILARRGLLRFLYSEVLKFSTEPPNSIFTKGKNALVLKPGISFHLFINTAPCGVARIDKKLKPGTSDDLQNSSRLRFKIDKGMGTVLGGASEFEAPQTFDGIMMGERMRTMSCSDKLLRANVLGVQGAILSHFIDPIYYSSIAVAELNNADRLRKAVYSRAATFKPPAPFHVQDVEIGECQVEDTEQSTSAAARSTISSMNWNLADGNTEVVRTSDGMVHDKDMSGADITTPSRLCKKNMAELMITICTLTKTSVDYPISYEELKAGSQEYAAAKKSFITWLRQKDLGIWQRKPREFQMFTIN

Work on “UUAUUAGGUCGGCAAAUAAUUAUUGACGUGUUUUGCCAAUUAACGAUUUUUUGUAAAUUUUAUAUGUGUCUCUUACAGUAAACCGAGAGUGUAUAAAAGCAUAUGAAUAUCAGUUGCUUUGGUCAUCUGAGUAGUAAUACGAUUCGAAAAAAUCGAAAAGUUUUUUUUCCAAUUUUUUGAGUUAGCCGUGAGAGUUG / CAACUCUUCACAGCUAACUCAAAAAAUCGCGAAAAGCAUUUUUCAAAAAAUUUUUGAUUUUUUAGAUUCUUAAUACUACGCAGGUAGCCAAAGUAGCUGAUAUUUUUAUGUUUUCAUACAUUCACAUUUUACUAUAAGACACACAUACAAAAUUUACAAAAAUUGUUAAUUGACAAAAUACGUCAAUAAUUAUUUGUCUACCUAAUAA [lam-2 3'UTR 200 bp dsRNA]” yielded a Kd [1] of 0.43 nM and a Kd [2] of 76.3 nM.
